The values that follow come from the supplement of paper PMC10567573.

Sequences and labels used below:
B1: KLHDC10 (parent)
chain: FGGTGIPFGESNGNGVHVCNVKYK
B2: TRIM29 (parent)
chain: FAEKGELRKSIFSESRKPTVSIME
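Further: lentivirally expressed fusions sorted by FACS into six bins by GFP to DsRed ratio, PSI derived from sequencing read proportions per bin multiplied by bin number.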

In one data set the parent is B1. The data set is described as follows: protein stability index of a GFP-peptide fusion (GPS, HEK-293T) (PSI 1-6); higher = more stable. Particulars: c terminus: a fixed tail appended.
Take FGGTGIPFGESNGNGVHVCNVKWK [Y23W]: the protein stability index was determined as 2.62.

Turning to FGGTGIPFGESNGNGVHVCNVKYL [K24L], the protein stability index is 2.06.

With FGGTGIPFGESNGNGVHVCNVKYM [K24M], the protein stability index stood at 2.42.

For the variant FGGTGIPFGESNGNGVHVCNVKYE [K24E], the protein stability index amounted to 1.99.

Turning to FGGTGIPFGESNGNGVHVCNVKYT [K24T], the protein stability index turned out to be 3.32.

Regarding FGGTGIPFGESNGNGVHVCNVKYG [K24G], the protein stability index was determined as 1.6.

As for FGGTGIPFGESNGNGVHVCNVKYW [K24W], the protein stability index is 2.61.

Regarding FGGTGIPFGESNGNGVHVCNVKYI [K24I], the protein stability index was 1.42.

On to FGGTGIPFGESNGNGVHVCNVKYP [K24P], for which the protein stability index amounted to 2.11.

For FGGTGIPFGESNGNGVHVCNVKYH [K24H], the protein stability index was found to be 1.57.

For the variant FGGTGIPFGESNGNGVHVCNVKYA [K24A], the protein stability index was found to be 1.23.

For FGGTGIPFGESNGNGVHVCNVKYR [K24R], the protein stability index turned out to be 1.63.

In the case of FGGTGIPFGESNGNGVHVCNVKYV [K24V], the protein stability index stood at 1.66.

Turning to FGGTGIPFGESNGNGVHVCNVKYD [K24D], the protein stability index amounted to 2.4.

Take FGGTGIPFGESNGNGVHVCNVKYQ [K24Q]: the protein stability index was found to be 2.

For the variant FGGTGIPFGESNGNGVHVCNVKYY [K24Y], the protein stability index was found to be 1.88.

Regarding FGGTGIPFGESNGNGVHVCNVKYC [K24C], the protein stability index was found to be 1.75.

For FGGTGIPFGESNGNGVHVCNVKYF [K24F], the protein stability index came out at 1.

On to FGGTGIPFGESNGNGVHVCNVKYS [K24S], for which the protein stability index was found to be 1.66.

Turning to FGGTGIPFGESNGNGVHVCNVKYN [K24N], the protein stability index turned out to be 1.82.

Another data set covers variants of B2. Described as above. Particulars: c terminus: a fixed tail appended.
Consider SAEKGELRKSIFSESRKPTVSIME [F1S], for which the protein stability index turned out to be 3.58.

For the variant EAEKGELRKSIFSESRKPTVSIME [F1E], the protein stability index was 4.13.

With DAEKGELRKSIFSESRKPTVSIME [F1D], the protein stability index came to 4.75.

Take MAEKGELRKSIFSESRKPTVSIME [F1M]: the protein stability index amounted to 3.73.

TAEKGELRKSIFSESRKPTVSIME [F1T]: the protein stability index was 3.95.

CAEKGELRKSIFSESRKPTVSIME [F1C]: the protein stability index was 2.68.

In the case of KAEKGELRKSIFSESRKPTVSIME [F1K], the protein stability index worked out at 4.27.

Turning to IAEKGELRKSIFSESRKPTVSIME [F1I], the protein stability index turned out to be 3.63.

As for YAEKGELRKSIFSESRKPTVSIME [F1Y], the protein stability index was 1.45.

GAEKGELRKSIFSESRKPTVSIME [F1G]: the protein stability index was 3.89.

For HAEKGELRKSIFSESRKPTVSIME [F1H], the protein stability index is 4.29.

Consider PAEKGELRKSIFSESRKPTVSIME [F1P], for which the protein stability index was determined as 3.9.

LAEKGELRKSIFSESRKPTVSIME [F1L]: the protein stability index turned out to be 3.14.

As to RAEKGELRKSIFSESRKPTVSIME [F1R], the protein stability index was found to be 3.66.

Turning to QAEKGELRKSIFSESRKPTVSIME [F1Q], the protein stability index was determined as 3.97.

Turning to AAEKGELRKSIFSESRKPTVSIME [F1A], the protein stability index came to 4.35.

Regarding WAEKGELRKSIFSESRKPTVSIME [F1W], the protein stability index was determined as 2.6.

As to VAEKGELRKSIFSESRKPTVSIME [F1V], the protein stability index was 3.94.

As for NAEKGELRKSIFSESRKPTVSIME [F1N], the protein stability index is 4.34.

As to FAEKGQLRKSIFSESRKPTVSIME [E6Q], the protein stability index is 1.45.

In the case of FAEKGTLRKSIFSESRKPTVSIME [E6T], the protein stability index was determined as 1.56.

In the case of FAEKGLLRKSIFSESRKPTVSIME [E6L], the protein stability index came out at 2.78.

For the variant FAEKGCLRKSIFSESRKPTVSIME [E6C], the protein stability index came to 2.57.

With FAEKGALRKSIFSESRKPTVSIME [E6A], the protein stability index was 1.77.

As for FAEKGPLRKSIFSESRKPTVSIME [E6P], the protein stability index stood at 2.78.

Take FAEKGFLRKSIFSESRKPTVSIME [E6F]: the protein stability index came out at 2.65.

For FAEKGHLRKSIFSESRKPTVSIME [E6H], the protein stability index came out at 2.38.

As to FAEKGSLRKSIFSESRKPTVSIME [E6S], the protein stability index worked out at 1.8.

On to FAEKGWLRKSIFSESRKPTVSIME [E6W], for which the protein stability index was determined as 2.02.

FAEKGYLRKSIFSESRKPTVSIME [E6Y]: the protein stability index turned out to be 1.84.

On to FAEKGRLRKSIFSESRKPTVSIME [E6R], for which the protein stability index came to 1.64.

As for FAEKGNLRKSIFSESRKPTVSIME [E6N], the protein stability index turned out to be 1.36.

For FAEKGGLRKSIFSESRKPTVSIME [E6G], the protein stability index is 1.47.

In the case of FAEKGILRKSIFSESRKPTVSIME [E6I], the protein stability index was 1.82.

Regarding FAEKGVLRKSIFSESRKPTVSIME [E6V], the protein stability index was 1.93.

Regarding FAEKGMLRKSIFSESRKPTVSIME [E6M], the protein stability index stood at 1.78.

Consider FAEKGDLRKSIFSESRKPTVSIME [E6D], for which the protein stability index is 1.44.

On to FAEKGKLRKSIFSESRKPTVSIME [E6K], for which the protein stability index stood at 1.85.

In the case of FAEDGELRKSIFSESRKPTVSIME [K4D], the protein stability index was 2.06.

FAEHGELRKSIFSESRKPTVSIME [K4H]: the protein stability index came out at 1.75.

With FAERGELRKSIFSESRKPTVSIME [K4R], the protein stability index worked out at 2.08.

Take FAEMGELRKSIFSESRKPTVSIME [K4M]: the protein stability index amounted to 1.39.

For the variant FAEAGELRKSIFSESRKPTVSIME [K4A], the protein stability index was 1.87.

For the variant FAEEGELRKSIFSESRKPTVSIME [K4E], the protein stability index stood at 2.33.

Turning to FAESGELRKSIFSESRKPTVSIME [K4S], the protein stability index turned out to be 1.8.

With FAEQGELRKSIFSESRKPTVSIME [K4Q], the protein stability index was 1.71.

For the variant FAEYGELRKSIFSESRKPTVSIME [K4Y], the protein stability index worked out at 2.16.

As to FAEFGELRKSIFSESRKPTVSIME [K4F], the protein stability index was found to be 1.77.

FAEIGELRKSIFSESRKPTVSIME [K4I]: the protein stability index turned out to be 2.1.

Take FAEWGELRKSIFSESRKPTVSIME [K4W]: the protein stability index was 3.24.

For the variant FAENGELRKSIFSESRKPTVSIME [K4N], the protein stability index was found to be 2.53.

As to FAELGELRKSIFSESRKPTVSIME [K4L], the protein stability index is 2.38.

As for FAECGELRKSIFSESRKPTVSIME [K4C], the protein stability index came to 2.24.

With FAEPGELRKSIFSESRKPTVSIME [K4P], the protein stability index worked out at 1.8.

Take FAETGELRKSIFSESRKPTVSIME [K4T]: the protein stability index worked out at 2.14.

With FAEVGELRKSIFSESRKPTVSIME [K4V], the protein stability index was 2.38.

Consider FAEGGELRKSIFSESRKPTVSIME [K4G], for which the protein stability index is 2.02.

On to FAEKGELRESIFSESRKPTVSIME [K9E], for which the protein stability index stood at 1.84.

Consider FAEKGELRQSIFSESRKPTVSIME [K9Q], for which the protein stability index is 1.8.

As for FAEKGELRRSIFSESRKPTVSIME [K9R], the protein stability index was found to be 2.62.

For FAEKGELRCSIFSESRKPTVSIME [K9C], the protein stability index was 3.57.

For FAEKGELRTSIFSESRKPTVSIME [K9T], the protein stability index was 1.93.

For FAEKGELRASIFSESRKPTVSIME [K9A], the protein stability index was 1.77.

Regarding FAEKGELRMSIFSESRKPTVSIME [K9M], the protein stability index stood at 2.02.

FAEKGELRNSIFSESRKPTVSIME [K9N]: the protein stability index came out at 1.87.

Regarding FAEKGELRLSIFSESRKPTVSIME [K9L], the protein stability index amounted to 3.5.

Consider FAEKGELRGSIFSESRKPTVSIME [K9G], for which the protein stability index is 2.3.

As to FAEKGELRDSIFSESRKPTVSIME [K9D], the protein stability index was determined as 1.85.

FAEKGELRPSIFSESRKPTVSIME [K9P]: the protein stability index amounted to 2.23.

Take FAEKGELRSSIFSESRKPTVSIME [K9S]: the protein stability index was found to be 1.88.

In the case of FAEKGELRISIFSESRKPTVSIME [K9I], the protein stability index is 3.48.

Take FAEKGELRHSIFSESRKPTVSIME [K9H]: the protein stability index is 2.16.

For FAEKGELRFSIFSESRKPTVSIME [K9F], the protein stability index was determined as 1.39.

Consider FNEKGELRKSIFSESRKPTVSIME [A2N], for which the protein stability index is 2.91.
